Values belong to the molecule of their own block, whether it stands above or below them.
What was measured:
[1] = target: E2o 1-173 di-domain, labelled with N-(1-pyrene) maleimide (human); assay: other fluorescence titration; pyrene-labelled E2o 1-173 di-domain titrated by Arg715Cys E1a; 25 °C; 100 mM HEPES (pH 7.5), 0.15 M NaCl, 1% glycerol
[2] = target: human dihydrolipoamide dehydrogenase (E3) (human) (UniProt P09622); assay: pull-down; co-purification of E1a or Arg715Cys E1a with E2o and E3 (assembly into OADHc) on immobilized metal affinity chromatography; relative amounts from band intensities in PAGE; which component was held by the resin is not stated
[3] = target: human dihydrolipoamide succinyltransferase (E2o) (human) (UniProt P36957); assay: as above
[4] = target: E2o di-domain (linker and part of core domain) (Homo sapiens) (UniProt P36957); assay: fluorescence; settings: cited from earlier work
[5] = substrate: O=C(O)CCCC(=O)C(=O)O; assay: E1a-specific DCPIP reduction assay (Km, kcat); type: biochemical, Homo sapiens; settings: ThDP, Mg2+ active center; decarboxylated to the E1a-ThDP-enamine intermediate
[6] = substrate: O=C(O)CCCCC(=O)C(=O)O; assay: E1a-specific DCPIP reduction assay (Km, kcat); type: biochemical, Homo sapiens; settings: ThDP, Mg2+ active center; decarboxylated to the E1a-ThDP-enamine intermediate
[7] = substrate: O=C(O)CCCC(=O)C(=O)O; assay: E1a-specific DCPIP reduction assay (Km); type: biochemical, Homo sapiens; settings: ThDP, Mg2+

Chain of human dihydrolipoamide dehydrogenase (E3) (human) (P09622 36-509): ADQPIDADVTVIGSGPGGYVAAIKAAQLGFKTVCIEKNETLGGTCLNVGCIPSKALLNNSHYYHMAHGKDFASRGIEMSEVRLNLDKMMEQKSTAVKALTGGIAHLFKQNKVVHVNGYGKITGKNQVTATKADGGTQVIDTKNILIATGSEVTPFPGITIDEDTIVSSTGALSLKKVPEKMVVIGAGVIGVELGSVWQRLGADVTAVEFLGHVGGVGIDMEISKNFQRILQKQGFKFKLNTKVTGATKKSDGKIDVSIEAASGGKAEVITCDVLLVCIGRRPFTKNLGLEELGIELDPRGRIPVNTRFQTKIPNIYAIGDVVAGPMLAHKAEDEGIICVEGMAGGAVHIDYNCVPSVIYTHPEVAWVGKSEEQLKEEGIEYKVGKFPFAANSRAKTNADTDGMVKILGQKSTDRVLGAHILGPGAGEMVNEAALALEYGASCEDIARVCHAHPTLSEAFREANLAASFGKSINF
Chain of human dihydrolipoamide succinyltransferase (E2o) (human) (P36957 68-453): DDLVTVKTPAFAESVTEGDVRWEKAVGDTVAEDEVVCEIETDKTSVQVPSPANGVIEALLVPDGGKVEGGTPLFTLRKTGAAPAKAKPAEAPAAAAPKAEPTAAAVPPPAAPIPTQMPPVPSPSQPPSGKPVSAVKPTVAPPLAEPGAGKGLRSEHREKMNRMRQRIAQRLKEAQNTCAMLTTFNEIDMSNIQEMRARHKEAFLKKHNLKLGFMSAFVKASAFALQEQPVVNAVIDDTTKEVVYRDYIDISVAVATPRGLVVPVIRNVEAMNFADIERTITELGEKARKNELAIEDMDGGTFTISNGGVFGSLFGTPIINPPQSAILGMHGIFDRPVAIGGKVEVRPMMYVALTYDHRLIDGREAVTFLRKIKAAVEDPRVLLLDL
Chain of E2o di-domain (linker and part of core domain) (Homo sapiens) (P36957 68-219): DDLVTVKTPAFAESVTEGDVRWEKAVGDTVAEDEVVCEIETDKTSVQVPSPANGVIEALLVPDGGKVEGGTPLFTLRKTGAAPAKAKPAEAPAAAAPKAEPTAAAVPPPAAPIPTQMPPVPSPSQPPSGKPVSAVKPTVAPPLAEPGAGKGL

Kd [1]: 1130 nM | relative amount of E1a among the components co-purified as OADHc (band intensity in PAGE) [2]: 7.7% | relative amount of E1a among the components co-purified as OADHc (band intensity in PAGE) [3]: 7.7%
Molecule: Arg715Cys E1a variant of human 2-oxoadipate dehydrogenase (enzyme)

Molecule: E1a (2-oxoadipate dehydrogenase) (from UniProt Q96HY7)
Kd [4]: 1120 nM

relative amount of E1a among the components co-purified as OADHc (band intensity in PAGE) [2]: 46% | relative amount of E1a among the components co-purified as OADHc (band intensity in PAGE) [3]: 46%
Molecule: human 2-oxoadipate dehydrogenase (E1a), wild type (enzyme)

B1: 2-oxoadipate dehydrogenase (E1a) (Homo sapiens) (protein)
chain: GYQTERGVYGYRPRKPESREPQGALERPPVDHGLARLVTVYCEHGHKAAKINPLFTGQALLENVPEIQALVQTLQGPFHTAGLLNMGKEEASLEEVLVYLNQIYCGQISIETSQLQSQDEKDWFAKRFEELQKETFTTEERKHLSKLMLESQEFDHFLATKFSTVKRYGGEGAESMMGFFHELLKMSAYSGITDVIIGMPHRGRLNLLTGLLQFPPELMFRKMRGLSEFPENFSATGDVLSHLTSSVDLYFGAHHPLHVTMLPNPSHLEAVNPVAVGKTRGRQQSRQDGDYSPDNSAQPGDRVICLQVHGDASFCGQGIVPETFTLSNLPHFRIGGSVHLIVNNQLGYTTPAERGRSSLYCSDIGKLVGCAIIHVNGDSPEEVVRATRLAFEYQRQFRKDVIIDLLCYRQWGHNELDEPFYTNPIMYKIIRARKSIPDTYAEHLIAGGLMTQEEVSEIKSSYYAKLNDHLNNMAHYRPPALNLQAHWQGLAQPEAQITTWSTGVPLDLLRFVGMKSVEVPRELQMHSHLLKTHVQSRMEKMMDGIKLDWATAEALALGSLLAQGFNVRLSGQDVGRGTFSQRHAIVVCQETDDTYIPLNHMDPNQKGFLEVSNSPLSEEAVLGFEYGMSIESPKLLPLWEAQFGDFFNGAQIIFDTFISGGEAKWLLQSGIVILLPHGYDGAGPDHSSCRIERFLQMCDSAEEGVDGDTVNMFVVHPTTPAQYFHLLRRQMVRNFRKPLIVASPKMLLRLPAAVSTLQEMAPGTTFNPVIGDSSVDPKKVKTLVFCSGKHFYSLVKQRESLGAKKHDFAIIRVEELCPFPLDSLQQEMSKYKHVKDHIWSQEEPQNMGPWSFVSPRFEKQLACKLRLVGRPPLPVPAVGIGTVHLHQHEDILAKTFA
notes: C-terminally His6-tagged E1a
Km [5]: 4.9 µM | Km [6]: 37 µM

B2: 2-oxoadipate dehydrogenase (E1a) (Homo sapiens; P773L) (protein)
chain: GYQTERGVYGYRPRKPESREPQGALERPPVDHGLARLVTVYCEHGHKAAKINPLFTGQALLENVPEIQALVQTLQGPFHTAGLLNMGKEEASLEEVLVYLNQIYCGQISIETSQLQSQDEKDWFAKRFEELQKETFTTEERKHLSKLMLESQEFDHFLATKFSTVKRYGGEGAESMMGFFHELLKMSAYSGITDVIIGMPHRGRLNLLTGLLQFPPELMFRKMRGLSEFPENFSATGDVLSHLTSSVDLYFGAHHPLHVTMLPNPSHLEAVNPVAVGKTRGRQQSRQDGDYSPDNSAQPGDRVICLQVHGDASFCGQGIVPETFTLSNLPHFRIGGSVHLIVNNQLGYTTPAERGRSSLYCSDIGKLVGCAIIHVNGDSPEEVVRATRLAFEYQRQFRKDVIIDLLCYRQWGHNELDEPFYTNPIMYKIIRARKSIPDTYAEHLIAGGLMTQEEVSEIKSSYYAKLNDHLNNMAHYRPPALNLQAHWQGLAQPEAQITTWSTGVPLDLLRFVGMKSVEVPRELQMHSHLLKTHVQSRMEKMMDGIKLDWATAEALALGSLLAQGFNVRLSGQDVGRGTFSQRHAIVVCQETDDTYIPLNHMDPNQKGFLEVSNSPLSEEAVLGFEYGMSIESPKLLPLWEAQFGDFFNGAQIIFDTFISGGEAKWLLQSGIVILLPHGYDGAGPDHSSCRIERFLQMCDSAEEGVDGDTVNMFVVHPTTPAQYFHLLRRQMVRNFRKPLIVASPKMLLRLLAAVSTLQEMAPGTTFNPVIGDSSVDPKKVKTLVFCSGKHFYSLVKQRESLGAKKHDFAIIRVEELCPFPLDSLQQEMSKYKHVKDHIWSQEEPQNMGPWSFVSPRFEKQLACKLRLVGRPPLPVPAVGIGTVHLHQHEDILAKTFA
Km [7]: 6 µM

B3: 2-oxoadipate dehydrogenase (E1a) (Homo sapiens; Q305H) (protein)
chain: GYQTERGVYGYRPRKPESREPQGALERPPVDHGLARLVTVYCEHGHKAAKINPLFTGQALLENVPEIQALVQTLQGPFHTAGLLNMGKEEASLEEVLVYLNQIYCGQISIETSQLQSQDEKDWFAKRFEELQKETFTTEERKHLSKLMLESQEFDHFLATKFSTVKRYGGEGAESMMGFFHELLKMSAYSGITDVIIGMPHRGRLNLLTGLLQFPPELMFRKMRGLSEFPENFSATGDVLSHLTSSVDLYFGAHHPLHVTMLPNPSHLEAVNPVAVGKTRGRHQSRQDGDYSPDNSAQPGDRVICLQVHGDASFCGQGIVPETFTLSNLPHFRIGGSVHLIVNNQLGYTTPAERGRSSLYCSDIGKLVGCAIIHVNGDSPEEVVRATRLAFEYQRQFRKDVIIDLLCYRQWGHNELDEPFYTNPIMYKIIRARKSIPDTYAEHLIAGGLMTQEEVSEIKSSYYAKLNDHLNNMAHYRPPALNLQAHWQGLAQPEAQITTWSTGVPLDLLRFVGMKSVEVPRELQMHSHLLKTHVQSRMEKMMDGIKLDWATAEALALGSLLAQGFNVRLSGQDVGRGTFSQRHAIVVCQETDDTYIPLNHMDPNQKGFLEVSNSPLSEEAVLGFEYGMSIESPKLLPLWEAQFGDFFNGAQIIFDTFISGGEAKWLLQSGIVILLPHGYDGAGPDHSSCRIERFLQMCDSAEEGVDGDTVNMFVVHPTTPAQYFHLLRRQMVRNFRKPLIVASPKMLLRLPAAVSTLQEMAPGTTFNPVIGDSSVDPKKVKTLVFCSGKHFYSLVKQRESLGAKKHDFAIIRVEELCPFPLDSLQQEMSKYKHVKDHIWSQEEPQNMGPWSFVSPRFEKQLACKLRLVGRPPLPVPAVGIGTVHLHQHEDILAKTFA
notes: C-terminally His6-tagged E1a variant
Km [7]: 5 µM

B4: 2-oxoadipate dehydrogenase (E1a) (Homo sapiens; R455Q) (protein)
chain: GYQTERGVYGYRPRKPESREPQGALERPPVDHGLARLVTVYCEHGHKAAKINPLFTGQALLENVPEIQALVQTLQGPFHTAGLLNMGKEEASLEEVLVYLNQIYCGQISIETSQLQSQDEKDWFAKRFEELQKETFTTEERKHLSKLMLESQEFDHFLATKFSTVKRYGGEGAESMMGFFHELLKMSAYSGITDVIIGMPHRGRLNLLTGLLQFPPELMFRKMRGLSEFPENFSATGDVLSHLTSSVDLYFGAHHPLHVTMLPNPSHLEAVNPVAVGKTRGRQQSRQDGDYSPDNSAQPGDRVICLQVHGDASFCGQGIVPETFTLSNLPHFRIGGSVHLIVNNQLGYTTPAERGRSSLYCSDIGKLVGCAIIHVNGDSPEEVVRATRLAFEYQRQFRKDVIIDLLCYRQWGHNELDEPFYTNPIMYKIIRAQKSIPDTYAEHLIAGGLMTQEEVSEIKSSYYAKLNDHLNNMAHYRPPALNLQAHWQGLAQPEAQITTWSTGVPLDLLRFVGMKSVEVPRELQMHSHLLKTHVQSRMEKMMDGIKLDWATAEALALGSLLAQGFNVRLSGQDVGRGTFSQRHAIVVCQETDDTYIPLNHMDPNQKGFLEVSNSPLSEEAVLGFEYGMSIESPKLLPLWEAQFGDFFNGAQIIFDTFISGGEAKWLLQSGIVILLPHGYDGAGPDHSSCRIERFLQMCDSAEEGVDGDTVNMFVVHPTTPAQYFHLLRRQMVRNFRKPLIVASPKMLLRLPAAVSTLQEMAPGTTFNPVIGDSSVDPKKVKTLVFCSGKHFYSLVKQRESLGAKKHDFAIIRVEELCPFPLDSLQQEMSKYKHVKDHIWSQEEPQNMGPWSFVSPRFEKQLACKLRLVGRPPLPVPAVGIGTVHLHQHEDILAKTFA
notes: as for B3
Km [7]: 3.5 µM
